Data on 2 substances can be found in paper PMC6370785.

The target in assay [1] is recombinant human TRAIL/Apo2 Ligand (rhTRAIL) (human) (UniProt P50591). Kind of assay: SDS-PAGE and Western blot; 100 ng rhTRAIL as positive control on the same blot; whether BS3 was added to it is not told.
Assay [2] deals with soluble TRAIL (sTRAIL), secretable trimer-forming variant of human TRAIL (human | yeast) (UniProt P50591). Kind of assay: SDS-PAGE and Western blot without cross-linker; 293T culture supernatant (48 h after transfection) without BS3, 4-20% SDS-PAGE, Western blot with anti-TRAIL.
Assay [3] shares this target. Kind of assay: cross-linking; 293T culture supernatant (48 h after transfection) with 1 mM BS3, 4-20% SDS-PAGE, Western blot with anti-TRAIL.

As usually defined, the stoichiometry N is the number of molecules, sites or subunits per partner or assembly. Turning to “recombinant human TRAIL/Apo2 Ligand (rhTRAIL) (from UniProt P50591 1-281)”, in assay [1], the stoichiometry N is 3.
Take “soluble TRAIL (sTRAIL), secretable trimer-forming variant of human TRAIL (from UniProt P50591 114-281) (ligand)”: the stoichiometry N in assay [2] amounted to 2; in assay [3] it was 3.
